# Patent US20190361034A1
# How the values were obtained:
# [1] = target: MHC class II molecules on MHC class II-expressing Raji cells (human); assay: transfer cell ELISA, Raji cells; 62.5 ng/ml; plate row C
# [2] = target: MHC class II molecules on MHC class II-expressing Raji cells (human); assay: direct ELISA, plate-immobilised Raji cells; 5% BSA, 5,000 cells; 250 ng/ml
# [3] = target: MHC class II molecules on MHC class II-expressing Raji cells (human); assay: direct ELISA, plate-immobilised Raji cells; 10% FBS, 2,500 cells; 125 ng/ml
# [4] = target: MHC class II molecules on MHC class II-expressing Raji cells (human); assay: direct ELISA, plate-immobilised Raji cells; 10% FBS, 2,500 cells; 31.25 ng/ml
# [5] = target: MHC class II molecules on MHC class II-expressing Raji cells (human); assay: direct ELISA, plate-immobilised Raji cells; 10% FBS, 10,000 cells; 1000 ng/ml
# [6] = target: MHC class II molecules on MHC class II-expressing Raji cells (human); assay: direct ELISA, plate-immobilised Raji cells; 10% FBS, 5,000 cells; 125 ng/ml
# [7] = target: MHC class II molecules on MHC class II-expressing Raji cells (human); assay: direct ELISA, plate-immobilised Raji cells; 5% BSA, 2,500 cells; 62.5 ng/ml
# [8] = target: MHC class II molecules on MHC class II-expressing Raji cells (human); assay: direct ELISA, plate-immobilised Raji cells; 10% FBS, 10,000 cells; 500 ng/ml
# [9] = target: MHC class II molecules on MHC class II-expressing Raji cells (human); assay: direct ELISA, plate-immobilised Raji cells; 10% FBS, 2,500 cells; 250 ng/ml
# [10] = target: MHC class II molecules on MHC class II-expressing Raji cells (human); assay: transfer cell ELISA, Raji cells; 3.906 ng/ml; plate row C
# [11] = target: MHC class II molecules on MHC class II-expressing Raji cells (human); assay: direct ELISA, plate-immobilised Raji cells; 10% FBS, 2,500 cells; 62.5 ng/ml
# [12] = target: MHC class II molecules on MHC class II-expressing Raji cells (human); assay: direct ELISA, plate-immobilised Raji cells; 10% FBS, 2,500 cells; 1000 ng/ml
# [13] = target: MHC class II molecules on MHC class II-expressing Raji cells (human); assay: transfer cell ELISA, Raji cells; 7.813 ng/ml; plate row D
# [14] = target: MHC class II molecules on MHC class II-expressing Raji cells (human); assay: transfer cell ELISA, Raji cells; 500 ng/ml; plate row D
# [15] = target: MHC class II molecules on MHC class II-expressing Raji cells (human); assay: direct ELISA, plate-immobilised Raji cells; 10% FBS, 5,000 cells; 62.5 ng/ml
# [16] = target: MHC class II molecules on MHC class II-expressing Raji cells (human); assay: direct ELISA, plate-immobilised Raji cells; 5% BSA, 5,000 cells; 1000 ng/ml
# [17] = target: MHC class II molecules on MHC class II-expressing Raji cells (human); assay: direct ELISA, plate-immobilised Raji cells; 5% BSA, 10,000 cells; 31.25 ng/ml
# [18] = target: MHC class II molecules on MHC class II-expressing Raji cells (human); assay: direct ELISA, plate-immobilised Raji cells; 10% FBS, 5,000 cells; 1000 ng/ml
# [19] = target: MHC class II molecules on MHC class II-expressing Raji cells (human); assay: BLI; immobilised sample, Raji cells in solution; control of FIG. 19 (37° C., 1 day, no H2O2)
# [20] = target: MHC class II molecules on MHC class II-expressing Raji cells (human); assay: direct ELISA, plate-immobilised Raji cells; 0.5% Casein, 10,000 cells; 125 ng/ml
# [21] = target: MHC class II molecules on MHC class II-expressing Raji cells (human); assay: direct ELISA, plate-immobilised Raji cells; 3% gelatin, 10,000 cells; 500 ng/ml
# [22] = target: MHC class II molecules on MHC class II-expressing Raji cells (human); assay: BLI; IMP321 sample at 100% binding potency, Raji cells in solution; relative to reference standard
# [23] = target: MHC class II molecules on MHC class II-expressing Raji cells (human); assay: transfer cell ELISA, Raji cells; 7.813 ng/ml
# [24] = target: MHC class II molecules on MHC class II-expressing Raji cells (human); assay: direct ELISA, plate-immobilised Raji cells; 3% gelatin, 2,500 cells; 62.5 ng/ml
# [25] = target: MHC class II molecules on MHC class II-expressing Raji cells (human); assay: direct ELISA, plate-immobilised Raji cells; 0.5% Casein, 5,000 cells; 500 ng/ml
# [26] = target: MHC class II molecules on MHC class II-expressing Raji cells (human); assay: BLI; IMP321 sample diluted from reference standard to 75% binding potency, Raji cells in solution; relative to reference standard
# [27] = target: MHC class II molecules on MHC class II-expressing Raji cells (human); assay: direct ELISA, plate-immobilised Raji cells; 0.5% Casein, 2,500 cells; 15.625 ng/ml
# [28] = target: MHC class II molecules on MHC class II-expressing Raji cells (human); assay: BLI; immobilised sample, Raji cells in solution; dark control of FIG. 23
# [29] = target: MHC class II molecules on MHC class II-expressing Raji cells (human); assay: direct ELISA, plate-immobilised Raji cells; 3% gelatin, 5,000 cells; 62.5 ng/ml
substance,measurement,setting,value
IMP321 treated with Peptide-N-Glycosidase F (PNGase F) (Fc fusion),OD (ELISA signal),[1],0.082 OD
same,OD (ELISA signal),[2],1.09 OD
same,OD (ELISA signal),[3],1.12 OD
same,OD (ELISA signal),[4],0.294 OD
same,OD (ELISA signal),[5],1.34 OD
same,OD (ELISA signal),[6],0.443 OD
same,OD (ELISA signal),[7],0.297 OD
same,OD (ELISA signal),[8],1.35 OD
same,OD (ELISA signal),[9],1.29 OD
same,OD (ELISA signal),[10],0.012 OD
same,OD (ELISA signal),[11],0.329 OD
same,OD (ELISA signal),[12],2.39 OD
same,OD (ELISA signal),[13],0.02 OD
same,OD (ELISA signal),[14],0.594 OD
same,OD (ELISA signal),[15],0.28 OD
same,OD (ELISA signal),[16],1.81 OD
same,OD (ELISA signal),[17],0.31 OD
same,OD (ELISA signal),[18],2.25 OD
"IMP321, recombinant soluble human LAG-3Ig fusion protein (Fc fusion)",Bioactivity (binding),[19],85%
same,OD (ELISA signal),[20],0.176 OD
same,OD (ELISA signal),[21],1.55 OD
same,Potency determined by BLI assay,[22],98%
same,OD (ELISA signal),[23],0.053 OD
same,OD (ELISA signal),[24],0.399 OD
same,OD (ELISA signal),[25],0.206 OD
same,Potency determined by BLI assay,[26],80%
same,OD (ELISA signal),[27],0.168 OD
same,Bioactivity (binding),[28],100%
same,OD (ELISA signal),[29],0.464 OD
